From PMC6056499, “A systematic dissection of sequence elements determining β-Klotho and FGF interaction and signaling” (Scientific Reports, 2018) come the findings set out here.

This assay concerns the target human β-Klotho extracellular domain (aa1–992) fused with a 6 × His tag at the C-terminus (UniProt Q86Z14). Nature of the assay: solid-phase binding assay. The note with it: parent: est. 1.0; read off a plot.

Sequence of human β-Klotho extracellular domain (aa1–992) fused with a 6 × His tag at the C-terminus (Q86Z14 53-992): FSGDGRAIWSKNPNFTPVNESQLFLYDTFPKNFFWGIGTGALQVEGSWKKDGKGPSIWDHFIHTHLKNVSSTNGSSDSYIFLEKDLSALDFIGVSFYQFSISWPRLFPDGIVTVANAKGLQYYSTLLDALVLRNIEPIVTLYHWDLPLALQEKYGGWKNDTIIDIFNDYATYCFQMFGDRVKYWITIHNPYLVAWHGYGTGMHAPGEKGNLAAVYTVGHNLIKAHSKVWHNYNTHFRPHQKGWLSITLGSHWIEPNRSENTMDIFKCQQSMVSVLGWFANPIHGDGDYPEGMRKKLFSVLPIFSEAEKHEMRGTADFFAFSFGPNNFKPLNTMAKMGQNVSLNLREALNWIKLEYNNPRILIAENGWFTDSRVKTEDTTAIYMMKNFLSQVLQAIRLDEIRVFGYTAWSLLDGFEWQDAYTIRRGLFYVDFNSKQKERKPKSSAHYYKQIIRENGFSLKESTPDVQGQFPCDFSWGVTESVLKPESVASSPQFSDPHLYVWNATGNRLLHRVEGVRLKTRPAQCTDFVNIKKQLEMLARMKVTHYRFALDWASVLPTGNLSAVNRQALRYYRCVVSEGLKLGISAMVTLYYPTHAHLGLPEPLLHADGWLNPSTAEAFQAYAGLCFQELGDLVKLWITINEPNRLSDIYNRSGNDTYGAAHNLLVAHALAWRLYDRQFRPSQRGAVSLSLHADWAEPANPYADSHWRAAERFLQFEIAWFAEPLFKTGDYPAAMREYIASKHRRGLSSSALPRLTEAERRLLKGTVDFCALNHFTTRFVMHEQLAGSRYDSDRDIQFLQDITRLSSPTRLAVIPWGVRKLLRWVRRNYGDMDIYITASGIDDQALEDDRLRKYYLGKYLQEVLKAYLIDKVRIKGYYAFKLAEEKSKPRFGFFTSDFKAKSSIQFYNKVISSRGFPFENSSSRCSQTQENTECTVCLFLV
Sequence of mature human FGF21 polypeptide fused with the human Fc fragment at the N-terminus (Fc-FGF21), wild type (from UniProt Q9NSA1) 202G-A (Q9NSA1 29-209, change not shown): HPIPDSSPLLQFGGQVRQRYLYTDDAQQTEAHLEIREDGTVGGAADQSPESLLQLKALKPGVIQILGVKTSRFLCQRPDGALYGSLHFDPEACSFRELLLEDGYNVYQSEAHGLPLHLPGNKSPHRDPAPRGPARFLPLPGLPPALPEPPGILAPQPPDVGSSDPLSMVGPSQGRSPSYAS
Sequence of mature human FGF21 polypeptide fused with the human Fc fragment at the N-terminus (Fc-FGF21), wild type (from UniProt Q9NSA1) 167L-A (Q9NSA1 29-209, change not shown): as above
Sequence of mature human FGF21 polypeptide fused with the human Fc fragment at the N-terminus (Fc-FGF21), wild type (from UniProt Q9NSA1) 176E-R (Q9NSA1 29-209, change not shown): as above
Sequence of mature human FGF21 polypeptide fused with the human Fc fragment at the N-terminus (Fc-FGF21), wild type (from UniProt Q9NSA1) 172P-R (Q9NSA1 29-209, change not shown): as above
Sequence of mature human FGF21 polypeptide fused with the human Fc fragment at the N-terminus (Fc-FGF21), wild type (from UniProt Q9NSA1) 197V-A (Q9NSA1 29-209, change not shown): as above
Sequence of mature human FGF21 polypeptide fused with the human Fc fragment at the N-terminus (Fc-FGF21), wild type (from UniProt Q9NSA1) 187D-R (Q9NSA1 29-209, change not shown): as above
Sequence of mature human FGF21 polypeptide fused with the human Fc fragment at the N-terminus (Fc-FGF21), wild type (from UniProt Q9NSA1) 188V-R (Q9NSA1 29-209, change not shown): as above
Sequence of mature human FGF21 polypeptide fused with the human Fc fragment at the N-terminus (Fc-FGF21), wild type (from UniProt Q9NSA1) 174P-A (Q9NSA1 29-209, change not shown): as above
Sequence of mature human FGF21 polypeptide fused with the human Fc fragment at the N-terminus (Fc-FGF21), wild type (from UniProt Q9NSA1) 171P-A (Q9NSA1 29-209, change not shown): as above
Sequence of mature human FGF21 polypeptide fused with the human Fc fragment at the N-terminus (Fc-FGF21), wild type (from UniProt Q9NSA1) 187D-A (Q9NSA1 29-209, change not shown): as above
Sequence of mature human FGF21 polypeptide fused with the human Fc fragment at the N-terminus (Fc-FGF21), wild type (from UniProt Q9NSA1) 174P-R (Q9NSA1 29-209, change not shown): as above
Sequence of mature human FGF21 polypeptide fused with the human Fc fragment at the N-terminus (Fc-FGF21), wild type (from UniProt Q9NSA1) 201Q-A (Q9NSA1 29-209, change not shown): as above
Sequence of mature human FGF21 polypeptide fused with the human Fc fragment at the N-terminus (Fc-FGF21), wild type (from UniProt Q9NSA1) 169G-R (Q9NSA1 29-209, change not shown): as above
Sequence of mature human FGF21 polypeptide fused with the human Fc fragment at the N-terminus (Fc-FGF21), wild type (from UniProt Q9NSA1) 199P-A (Q9NSA1 29-209, change not shown): as above
Sequence of mature human FGF21 polypeptide fused with the human Fc fragment at the N-terminus (Fc-FGF21), wild type (from UniProt Q9NSA1) 166P-R (Q9NSA1 29-209, change not shown): as above
Sequence of mature human FGF21 polypeptide fused with the human Fc fragment at the N-terminus (Fc-FGF21), wild type (from UniProt Q9NSA1) 195S-A (Q9NSA1 29-209, change not shown): as above
Sequence of mature human FGF21 polypeptide fused with the human Fc fragment at the N-terminus (Fc-FGF21), wild type (from UniProt Q9NSA1) 190S-R (Q9NSA1 29-209, change not shown): as above

Turning to “mature human FGF21 polypeptide fused with the human Fc fragment at the N-terminus (Fc-FGF21), wild type (from UniProt Q9NSA1) 176E-R”, the ratio to parent was 1.6.
Then “mature human FGF21 polypeptide fused with the human Fc fragment at the N-terminus (Fc-FGF21), wild type (from UniProt Q9NSA1) 172P-R”, with 1.5; and “mature human FGF21 polypeptide fused with the human Fc fragment at the N-terminus (Fc-FGF21), wild type (from UniProt Q9NSA1) 202G-A”, with 1.8.
Then “mature human FGF21 polypeptide fused with the human Fc fragment at the N-terminus (Fc-FGF21), wild type (from UniProt Q9NSA1) 197V-A”, with 90; and “mature human FGF21 polypeptide fused with the human Fc fragment at the N-terminus (Fc-FGF21), wild type (from UniProt Q9NSA1) 169G-R”, with 2.2.
For the substance “mature human FGF21 polypeptide fused with the human Fc fragment at the N-terminus (Fc-FGF21), wild type (from UniProt Q9NSA1) 167L-A”, the ratio to parent came to 0.4.
For the substance “mature human FGF21 polypeptide fused with the human Fc fragment at the N-terminus (Fc-FGF21), wild type (from UniProt Q9NSA1) 187D-A”, the ratio to parent was 14.
Take “mature human FGF21 polypeptide fused with the human Fc fragment at the N-terminus (Fc-FGF21), wild type (from UniProt Q9NSA1) 195S-A”: the ratio to parent is 3.
With “mature human FGF21 polypeptide fused with the human Fc fragment at the N-terminus (Fc-FGF21), wild type (from UniProt Q9NSA1) 188V-R”, the ratio to parent is 950.
For “mature human FGF21 polypeptide fused with the human Fc fragment at the N-terminus (Fc-FGF21), wild type (from UniProt Q9NSA1) 187D-R”, the ratio to parent is 6.
With “mature human FGF21 polypeptide fused with the human Fc fragment at the N-terminus (Fc-FGF21), wild type (from UniProt Q9NSA1) 171P-A” the figure was 1.2; with “mature human FGF21 polypeptide fused with the human Fc fragment at the N-terminus (Fc-FGF21), wild type (from UniProt Q9NSA1) 174P-R”, 1.3.
With “mature human FGF21 polypeptide fused with the human Fc fragment at the N-terminus (Fc-FGF21), wild type (from UniProt Q9NSA1) 166P-R”, the ratio to parent worked out at 2.6.
On to “mature human FGF21 polypeptide fused with the human Fc fragment at the N-terminus (Fc-FGF21), wild type (from UniProt Q9NSA1) 201Q-A”, for which the ratio to parent is 0.6.
Turning to “mature human FGF21 polypeptide fused with the human Fc fragment at the N-terminus (Fc-FGF21), wild type (from UniProt Q9NSA1) 199P-A”, the ratio to parent came out at 1.
For the substance “mature human FGF21 polypeptide fused with the human Fc fragment at the N-terminus (Fc-FGF21), wild type (from UniProt Q9NSA1) 190S-R”, the ratio to parent came to 6.5.
As to “mature human FGF21 polypeptide fused with the human Fc fragment at the N-terminus (Fc-FGF21), wild type (from UniProt Q9NSA1) 174P-A”, the ratio to parent stood at 0.6.
